Reference: patent US20160145333A1 (Amgen, published 2016)

Experiments:
[1] = target: T1, Mouse CB1 receptor, wild type (mouse, UniProt P47746 1-473); assay: FACS on transfected cells
T1 construct: also called mCB1; V5-mCB1

[2] = target: T2, Human CB1 receptor (cannabinoid receptor-1), wild type (human, UniProt P21554 1-472); assay: cell-based or functional assay
[3] = target: T2, Human CB1 receptor (cannabinoid …); assay: method not given

T2 sequence (P21554 whole entry): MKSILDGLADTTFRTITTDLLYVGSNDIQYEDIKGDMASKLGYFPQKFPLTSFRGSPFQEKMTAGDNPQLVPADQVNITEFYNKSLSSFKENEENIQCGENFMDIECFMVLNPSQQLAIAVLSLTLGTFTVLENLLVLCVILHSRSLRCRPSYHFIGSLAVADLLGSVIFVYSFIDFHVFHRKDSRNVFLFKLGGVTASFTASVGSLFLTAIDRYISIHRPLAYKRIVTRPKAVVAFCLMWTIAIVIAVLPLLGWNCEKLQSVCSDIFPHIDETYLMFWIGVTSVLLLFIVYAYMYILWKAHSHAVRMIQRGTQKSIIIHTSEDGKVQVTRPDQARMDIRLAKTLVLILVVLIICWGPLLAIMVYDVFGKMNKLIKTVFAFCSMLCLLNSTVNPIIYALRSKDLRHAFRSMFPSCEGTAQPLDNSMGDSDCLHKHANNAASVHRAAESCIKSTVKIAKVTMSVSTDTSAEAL
T1 sequence (P47746 whole entry): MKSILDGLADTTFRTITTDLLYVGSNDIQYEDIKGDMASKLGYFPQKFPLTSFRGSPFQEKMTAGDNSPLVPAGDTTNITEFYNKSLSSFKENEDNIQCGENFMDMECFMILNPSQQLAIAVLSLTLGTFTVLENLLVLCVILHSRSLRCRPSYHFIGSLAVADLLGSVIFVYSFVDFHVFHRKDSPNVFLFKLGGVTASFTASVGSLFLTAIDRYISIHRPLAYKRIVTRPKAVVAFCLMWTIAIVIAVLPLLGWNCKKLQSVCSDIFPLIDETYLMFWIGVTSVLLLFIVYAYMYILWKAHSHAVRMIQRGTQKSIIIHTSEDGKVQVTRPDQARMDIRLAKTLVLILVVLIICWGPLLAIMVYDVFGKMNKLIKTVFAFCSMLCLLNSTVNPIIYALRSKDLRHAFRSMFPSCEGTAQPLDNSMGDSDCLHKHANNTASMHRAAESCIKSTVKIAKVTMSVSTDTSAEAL

B1: CB1 antibody 10D10 (antibody, human IgG2, kappa, V domains shown)
VH: QVQLQESGPGLVKPSQTLSLTCTVSGGSIRRGGDYWSWIRQHPGKGLEWIGYIYYSGSTNYNPSLKSRATISVDTSKNQFSLKLSSVTAADTAVYYCARDYDILTGYSYYYYGMDVWGQGTTVTVSS
VL: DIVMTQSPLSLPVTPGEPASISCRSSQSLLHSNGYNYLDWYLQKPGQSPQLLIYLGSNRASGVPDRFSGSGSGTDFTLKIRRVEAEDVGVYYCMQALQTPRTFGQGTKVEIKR
notes: Xenomouse (human) antibody; also called wild-type 10D10; WT HC / WT LC
binding result [1]: no binding | IC50, GTP-Eu assay against anandamide [2]: 10.1 nM | Kd [3]: < 200 nM
